T1: Cyno PD-L1 (cynomolgus, UniProt Q9NZQ7 19-127 (human entry), limits assumed)
T1 construct: also called cynomolgus PD-L1
T1 chain: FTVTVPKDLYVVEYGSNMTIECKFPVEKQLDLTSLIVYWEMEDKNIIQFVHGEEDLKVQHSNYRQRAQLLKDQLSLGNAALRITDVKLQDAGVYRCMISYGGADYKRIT

B1: Anti-PD-L1 Fab mut-03 (S104W) (Fab, V domains shown)
VH: QVQLVQSGAEVKKPGSSVKVSCKTSGDTFSTYAISWVRQAPGQGLEWMGGIIPIFGKAHYAQKFQGRVTITADESTSTAYMELSSLRSEDTAVYFCARKFHFVWGSPFGMDVWGQGTTVTVSS
VL: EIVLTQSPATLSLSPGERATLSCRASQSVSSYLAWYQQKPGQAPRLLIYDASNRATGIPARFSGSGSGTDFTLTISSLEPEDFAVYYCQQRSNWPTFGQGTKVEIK
notes: Fab format; VH variant with WT VL; constant domains of the Fab not specified; also called mut-3
B2: Anti-PD-L1 Fab mut-04 (I54K) (Fab, V domains shown)
VH: B1 VH with I54K, W104S
VL: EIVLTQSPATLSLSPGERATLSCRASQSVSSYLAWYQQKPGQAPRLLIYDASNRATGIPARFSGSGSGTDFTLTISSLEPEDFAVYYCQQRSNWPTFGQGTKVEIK
notes: Fab format; VH variant with WT VL; constant domains of the Fab not specified; also called mut-4
B3: Anti-PD-L1 Fab mut-28 (S104N) (Fab, V domains shown)
VH: B1 VH with W104N
VL: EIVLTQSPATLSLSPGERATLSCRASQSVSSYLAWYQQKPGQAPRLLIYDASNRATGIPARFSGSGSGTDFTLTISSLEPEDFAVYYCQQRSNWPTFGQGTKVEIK
notes: Fab format; VH variant with WT VL; constant domains of the Fab not specified
B4: Anti-PD-L1 Fab mut-43 (G56Q) (Fab, V domains shown)
VH: B1 VH with G56Q, W104S
VL: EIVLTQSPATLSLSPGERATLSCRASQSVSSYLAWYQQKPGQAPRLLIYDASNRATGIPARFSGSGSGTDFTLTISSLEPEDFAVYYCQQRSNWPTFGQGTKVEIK
notes: as for B3
B5: Anti-PD-L1 Fab mut-47 (T31R) (Fab, V domains shown)
VH: B1 VH with T31R, W104S
VL: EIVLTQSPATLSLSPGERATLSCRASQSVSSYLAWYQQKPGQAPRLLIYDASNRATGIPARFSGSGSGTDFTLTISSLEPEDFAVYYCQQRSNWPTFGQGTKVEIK
notes: as for B3
B6: Anti-PD-L1 Fab mut-34 (K57M) (Fab, V domains shown)
VH: B1 VH with K57M, W104S
VL: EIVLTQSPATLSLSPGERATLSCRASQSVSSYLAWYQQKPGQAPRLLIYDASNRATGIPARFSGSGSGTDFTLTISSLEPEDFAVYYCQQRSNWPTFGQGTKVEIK
notes: as for B3
B7: Anti-PD-L1 Fab mut-51 (S104R, G56Q, T31Q) (Fab, V domains shown)
VH: B1 VH with T31Q, G56Q, W104R
VL: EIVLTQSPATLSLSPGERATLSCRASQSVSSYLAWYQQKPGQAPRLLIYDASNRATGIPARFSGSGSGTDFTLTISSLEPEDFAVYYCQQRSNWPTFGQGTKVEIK
notes: as for B3
B8: Anti-PD-L1 Fab mut-54 (G56Q, T31Q) (Fab, V domains shown)
VH: B1 VH with T31Q, G56Q, W104S
VL: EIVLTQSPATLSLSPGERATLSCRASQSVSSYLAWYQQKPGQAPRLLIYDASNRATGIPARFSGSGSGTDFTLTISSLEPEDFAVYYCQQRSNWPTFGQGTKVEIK
notes: as for B3
B9: Anti-PD-L1 Fab mut-23 (G56H) (Fab, V domains shown)
VH: B1 VH with G56H, W104S
VL: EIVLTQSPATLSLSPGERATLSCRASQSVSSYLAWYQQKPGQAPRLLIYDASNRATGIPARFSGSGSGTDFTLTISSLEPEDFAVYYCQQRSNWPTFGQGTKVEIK
notes: as for B3
B10: Anti-PD-L1 Fab mut-39 (K57F) (Fab, V domains shown)
VH: B1 VH with K57F, W104S
VL: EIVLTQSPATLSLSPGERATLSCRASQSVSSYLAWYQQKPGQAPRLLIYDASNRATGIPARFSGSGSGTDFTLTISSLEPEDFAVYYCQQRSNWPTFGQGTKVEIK
notes: as for B3
B11: Anti-PD-L1 Fab mut-53 (S104R, T31Q) (Fab, V domains shown)
VH: B1 VH with T31Q, W104R
VL: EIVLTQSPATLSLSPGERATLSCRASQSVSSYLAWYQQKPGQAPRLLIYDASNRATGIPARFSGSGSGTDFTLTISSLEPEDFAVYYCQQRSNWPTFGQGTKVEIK
notes: as for B3
B12: Anti-PD-L1 Fab mut-14 (S104D) (Fab, V domains shown)
VH: B1 VH with W104D
VL: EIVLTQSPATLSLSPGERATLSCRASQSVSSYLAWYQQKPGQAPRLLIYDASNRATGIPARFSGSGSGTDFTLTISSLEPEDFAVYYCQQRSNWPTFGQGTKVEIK
notes: as for B3
B13: Anti-PD-L1 Fab mut-50 (Q62E) (Fab, V domains shown)
VH: B1 VH with Q62E, W104S
VL: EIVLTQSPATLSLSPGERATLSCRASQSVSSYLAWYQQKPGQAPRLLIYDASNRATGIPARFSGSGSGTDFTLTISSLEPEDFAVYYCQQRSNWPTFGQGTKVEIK
notes: as for B3
B14: Anti-PD-L1 Fab mut-07 (I54W) (Fab, V domains shown)
VH: B1 VH with I54W, W104S
VL: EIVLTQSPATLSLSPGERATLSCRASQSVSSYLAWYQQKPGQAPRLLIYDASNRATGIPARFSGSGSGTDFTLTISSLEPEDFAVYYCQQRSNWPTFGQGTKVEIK
notes: Fab format; VH variant with WT VL; constant domains of the Fab not specified; also called mut-7
B15: Anti-PD-L1 Fab mut-46 (I54R) (Fab, V domains shown)
VH: B1 VH with I54R, W104S
VL: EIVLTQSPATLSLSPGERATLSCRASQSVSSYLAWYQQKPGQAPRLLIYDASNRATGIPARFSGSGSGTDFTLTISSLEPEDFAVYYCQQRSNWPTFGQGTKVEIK
notes: as for B3
B16: Anti-PD-L1 Fab mut-06 (S104R) (Fab, V domains shown)
VH: B1 VH with W104R
VL: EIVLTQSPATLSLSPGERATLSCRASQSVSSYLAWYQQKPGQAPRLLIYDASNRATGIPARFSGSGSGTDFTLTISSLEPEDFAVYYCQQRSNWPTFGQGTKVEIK
notes: Fab format; VH variant with WT VL; constant domains of the Fab not specified; also called mut-6; Mut-6
B17: Anti-PD-L1 Fab mut-22 (A33H) (Fab, V domains shown)
VH: B1 VH with A33H, W104S
VL: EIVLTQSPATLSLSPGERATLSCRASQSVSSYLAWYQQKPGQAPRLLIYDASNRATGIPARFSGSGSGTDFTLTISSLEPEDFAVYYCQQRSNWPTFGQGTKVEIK
notes: as for B3
B18: Anti-PD-L1 Fab mut-20 (I54Y) (Fab, V domains shown)
VH: B1 VH with I54Y, W104S
VL: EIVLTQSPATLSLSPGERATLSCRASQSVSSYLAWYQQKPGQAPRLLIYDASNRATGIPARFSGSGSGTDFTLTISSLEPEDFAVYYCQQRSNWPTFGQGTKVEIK
notes: as for B3
B19: Anti-PD-L1 Fab mut-42 (I54Q) (Fab, V domains shown)
VH: B1 VH with I54Q, W104S
VL: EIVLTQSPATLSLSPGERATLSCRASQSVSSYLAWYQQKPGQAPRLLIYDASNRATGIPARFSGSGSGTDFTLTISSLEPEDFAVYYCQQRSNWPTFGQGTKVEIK
notes: as for B3
B20: Anti-PD-L1 Fab mut-52 (S104R, G56Q) (Fab, V domains shown)
VH: B1 VH with G56Q, W104R
VL: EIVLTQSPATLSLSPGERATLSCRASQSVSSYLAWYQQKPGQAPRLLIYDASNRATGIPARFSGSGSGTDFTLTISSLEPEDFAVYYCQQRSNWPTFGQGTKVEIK
notes: as for B3
B21: Anti-PD-L1 Fab mut-48 (T31Q) (Fab, V domains shown)
VH: B1 VH with T31Q, W104S
VL: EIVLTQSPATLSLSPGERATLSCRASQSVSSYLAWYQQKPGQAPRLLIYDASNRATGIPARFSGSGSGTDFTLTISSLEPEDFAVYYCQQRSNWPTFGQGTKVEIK
notes: as for B3
B22: Anti-PD-L1 Fab mut-44 (I52F) (Fab, V domains shown)
VH: B1 VH with I52F, W104S
VL: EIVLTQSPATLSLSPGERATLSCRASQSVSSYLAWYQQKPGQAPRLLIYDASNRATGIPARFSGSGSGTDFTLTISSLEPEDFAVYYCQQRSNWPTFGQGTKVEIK
notes: as for B3
B23: Anti-PD-L1 Fab mut-49 (G56N) (Fab, V domains shown)
VH: B1 VH with G56N, W104S
VL: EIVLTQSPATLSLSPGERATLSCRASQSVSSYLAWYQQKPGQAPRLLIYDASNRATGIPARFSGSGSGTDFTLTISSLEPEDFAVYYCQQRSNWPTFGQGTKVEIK
notes: as for B3
B24: Anti-PD-L1 Fab mut-27 (K57D) (Fab, V domains shown)
VH: B1 VH with K57D, W104S
VL: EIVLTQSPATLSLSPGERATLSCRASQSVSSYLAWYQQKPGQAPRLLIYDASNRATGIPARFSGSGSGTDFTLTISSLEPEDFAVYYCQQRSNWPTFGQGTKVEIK
notes: as for B3
B25: Anti-PD-L1 Fab mut-08 (K57R) (Fab, V domains shown)
VH: B1 VH with K57R, W104S
VL: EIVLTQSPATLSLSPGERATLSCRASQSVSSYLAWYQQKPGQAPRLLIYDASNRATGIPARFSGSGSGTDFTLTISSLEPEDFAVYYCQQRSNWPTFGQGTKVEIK
notes: Fab format; VH variant with WT VL; constant domains of the Fab not specified; also called mut-8
B26: Anti-PD-L1 Fab mut-15 (K57W) (Fab, V domains shown)
VH: B1 VH with K57W, W104S
VL: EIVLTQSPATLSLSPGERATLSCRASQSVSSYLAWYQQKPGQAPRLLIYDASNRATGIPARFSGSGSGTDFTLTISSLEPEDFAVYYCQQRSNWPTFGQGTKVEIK
notes: as for B3
B27: CD3-IgG-001 (antibody, V domains shown)
VH: EVQLVESGGGLVQPGGSLRLSCAASGFTFNTYAMNWVRQAPGKGLEWVARIRSKYNNYATYYADSVKDRFTISRDDSQSILYLQMNSLKTEDTAVYYCVRHGNFGNSYVSWFAYWGQGTLVTVSS
VL: QAVVTQEPSLTVSPGGTVTLTCRSSTGAVTTSNYANWVQQKPDHLPRALIGGTNKRAPGTPARFSGSLLGDKAALTLSGVQPEDEAEYYCALWYSNLWVFGGGTKLTVL
B28: CD3-IgG-002 (antibody, V domains shown)
VH: B27 VH with A49G, D68G, Q78K, S79N, I80S, V99A
VL: B27 VL with T60V, L77I, V80A, E87I
B29: mouse SP34 IgG (antibody, V domains shown)
VH: B27 VH with G15K, R19K, S87N, V95M
VL: QAVVTQESALTTSPGETVTLTCRSSTGAVTTSNYANWVQEKPDHLFTGLIGGTNKRAPGVPARFSGSLIGDKAALTITGAQTEDEAIYFCALWYSNLWVFGGGTKLTVL

Positions count from the first letter of the chain named. Names may count otherwise.

The first assay has as its target T2, Human PD-L1 (human, UniProt Q9NZQ7 19-127, limits assumed).
T2 construct: also called huPD-L1; hPD-L1
In words: SPR, Fab.
By Kd is commonly meant a measure of binding affinity in units of concentration. High values mean a looser complex, low ones a tighter complex. With B1, the Kd turned out to be 1.1 nM. B2 had a Kd of 0.857 nM.

With B3, binding was put at a Kd of 0.501 nM.

B4 displayed a Kd of 0.204 nM.

Molecule B5 came in with a Kd of 0.594 nM. Consider B6, for which the Kd was determined as 3.58 nM. The same measure, in the same setting: the same measure for B7: 0.0157 nM. Same read-out and setting: the same measure for B8: 0.0722 nM; for B9: 0.195 nM. B10 displayed a Kd of 1.54 nM.

B11 came in with a Kd of 0.0217 nM. As for B12, binding was put at a Kd of 3.36 nM. Regarding B13, the Kd worked out at 0.124 nM. Regarding B14, the Kd was determined as 4.25 nM. B15 returned a Kd of 1.04 nM. The molecule B16 showed a Kd of 0.0857 nM. Molecule B17 returned a Kd of 1.84 nM. Regarding B18, the Kd was 0.875 nM. The same measure, in the same setting: the same measure for B19: 3.99 nM; for B20: 0.0214 nM. The molecule B21 had a Kd of 0.249 nM.

Molecule B22 registered a Kd of 0.542 nM. As to B23, the affinity, expressed as Kd, was 0.224 nM.

With B24, the Kd amounted to 5.58 nM.

In turn, B25 showed a Kd of 0.489 nM. With B26, the Kd turned out to be 1.69 nM.

For the next assay, the target named is T1, Cyno PD-L1. As to the kind of experiment: SPR, Fab. (SPR reads the build-up and loss of mass on a sensor chip optically.)
With B1, the Kd worked out at 13.6 nM.

Molecule B2 registered an equilibrium dissociation constant (Kd) of 10.8 nM. With B3, the Kd turned out to be 5.51 nM.

The molecule B4 had a Kd of 2.73 nM. On to B5, for which the affinity, expressed as Kd, was 9.32 nM. Still for that read-out and setting: the same measure for B6: 5.82 nM.

Molecule B7 registered a Kd of 0.18 nM.

For the molecule B8, binding was put at a Kd of 0.631 nM. As for B9, binding was characterised by a dissociation constant (Kd) of 3.02 nM. On the same count and under the same terms, the same measure for B10: 3.96 nM; for B11: 0.288 nM. In turn, B12 registered a Kd of 29.3 nM. Turning to B13, the Kd amounted to 4.82 nM. Still for that read-out and setting: the same measure for B14: 143 nM; for B15: 12.7 nM; for B16: 2.86 nM. On to B17, for which binding was characterised by a dissociation constant (Kd) of 20 nM. Molecule B18 yielded a Kd of 15.9 nM. With B19, the Kd came to 5.98 nM. B20 returned a Kd of 0.298 nM. Take B21: the Kd worked out at 3.24 nM. In turn, B22 displayed a Kd of 6.85 nM. For the molecule B23, binding was put at a Kd of 3.53 nM. On to B24, for which the binding result is “no binding”. Molecule B25 yielded a dissociation constant (Kd) of 6.48 nM. Take B26: the Kd was 10.5 nM.

A further assay deals with human CD3 on Jurkat cells (human, UniProt P07766 23-207). In words: cell-based or functional assay.
Sequence of human CD3 on Jurkat cells (P07766 23-207): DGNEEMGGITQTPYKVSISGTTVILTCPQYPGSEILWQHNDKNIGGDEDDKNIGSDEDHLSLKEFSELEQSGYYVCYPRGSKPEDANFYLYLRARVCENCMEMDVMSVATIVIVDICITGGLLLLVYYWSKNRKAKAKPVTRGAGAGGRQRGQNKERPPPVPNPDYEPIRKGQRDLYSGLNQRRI
On to B27, for which the “EC50, CD3 activation signal in Jurkat reporter cell line (luciferase)” value (“EC50, CD3 activation signal” below) stood at 0.2 nM. For the molecule B28, the “EC50, CD3 activation signal” value was determined as 0.9 nM and the “fold difference of apparent EC50 against SP34 / Anti-CD3-IgG-001, Jurkat reporter” value was approximately 5 fold. For the molecule B29, the “EC50, CD3 activation signal” value came to 0.2 nM.
